Patent US20170233494

Target: mouse MBL (mannose-binding lectin of mouse serum)

B1: recombinant mouse MASP-2 (rMASP-2) (protein)
chain: SKWPEPVFGRLVSPGFPEKYADHQDRSWTLTAPPGYRLRLYFTHFDLELSYRCEYDFVKLSSGTKVLATLCGQESTDTEQAPGNDTFYSLGPSLKVTFHSDYSNEKPFTGFEAFYAAEDVDECRVSLGDSVPCDHYCHNYLGGYYCSCRAGYILHQNKHTCSALCSGQVFTGRSGYLSSPEYPQPYPKLSSCTYSIRLEDGFSVILDFVESFDVETHPEAQCPYDSLKIQTDKGEHGPFCGKTLPPRIETDSHKVTITFATDESGNHTGWKIHYTSTARPCPDPTAPPNGSISPVQATYVLKDRFSVFCKTGFELLQGSVPLKSFTAVCQKDGSWDRPMPECSIIDCGPPDDLPNGHVDYITGPQVTTYKAVIQYSCEETFYTMSSNGKYVCEADGFWTSSKGEKLPPVCEPVCGLSTHTIGGRIVGGQPAKPGDFPWQVLLLGQTTAAAGALIHDNWVLTAAHAVYEKRMAASSLNIRMGILKRLSPHYTQAWPEEIFIHEGYTHGAGFDNDIALIKLKNKVTINGSIMPVCLPRKEAASLMRTDFTGTVAGWGLTQKGLLARNLMFVDIPIADHQKCTTVYEKLYPGVRVSANMLCAGLETGGKDSCRGDSGGALVFLDNETQRWFVGGIVSWGSINCGAAGQYGVYTKVINYIPWNENIISNF
  C4 deposition on mannan-coated wells (sMAP-/- mouse serum): the amount of C4 was restored by up to 46% of that of wild-type serum in a dose-dependent manner and reached a plateau
